Each substance was assayed against mouse myosin IIb (myosin heavy chain IIb), 200 kDa skeletal muscle protein (mouse) (UniProt Q5SX39) (assay: cell-based or functional assay).
Chain of UniProt Q5SX39 (Q5SX39 whole entry): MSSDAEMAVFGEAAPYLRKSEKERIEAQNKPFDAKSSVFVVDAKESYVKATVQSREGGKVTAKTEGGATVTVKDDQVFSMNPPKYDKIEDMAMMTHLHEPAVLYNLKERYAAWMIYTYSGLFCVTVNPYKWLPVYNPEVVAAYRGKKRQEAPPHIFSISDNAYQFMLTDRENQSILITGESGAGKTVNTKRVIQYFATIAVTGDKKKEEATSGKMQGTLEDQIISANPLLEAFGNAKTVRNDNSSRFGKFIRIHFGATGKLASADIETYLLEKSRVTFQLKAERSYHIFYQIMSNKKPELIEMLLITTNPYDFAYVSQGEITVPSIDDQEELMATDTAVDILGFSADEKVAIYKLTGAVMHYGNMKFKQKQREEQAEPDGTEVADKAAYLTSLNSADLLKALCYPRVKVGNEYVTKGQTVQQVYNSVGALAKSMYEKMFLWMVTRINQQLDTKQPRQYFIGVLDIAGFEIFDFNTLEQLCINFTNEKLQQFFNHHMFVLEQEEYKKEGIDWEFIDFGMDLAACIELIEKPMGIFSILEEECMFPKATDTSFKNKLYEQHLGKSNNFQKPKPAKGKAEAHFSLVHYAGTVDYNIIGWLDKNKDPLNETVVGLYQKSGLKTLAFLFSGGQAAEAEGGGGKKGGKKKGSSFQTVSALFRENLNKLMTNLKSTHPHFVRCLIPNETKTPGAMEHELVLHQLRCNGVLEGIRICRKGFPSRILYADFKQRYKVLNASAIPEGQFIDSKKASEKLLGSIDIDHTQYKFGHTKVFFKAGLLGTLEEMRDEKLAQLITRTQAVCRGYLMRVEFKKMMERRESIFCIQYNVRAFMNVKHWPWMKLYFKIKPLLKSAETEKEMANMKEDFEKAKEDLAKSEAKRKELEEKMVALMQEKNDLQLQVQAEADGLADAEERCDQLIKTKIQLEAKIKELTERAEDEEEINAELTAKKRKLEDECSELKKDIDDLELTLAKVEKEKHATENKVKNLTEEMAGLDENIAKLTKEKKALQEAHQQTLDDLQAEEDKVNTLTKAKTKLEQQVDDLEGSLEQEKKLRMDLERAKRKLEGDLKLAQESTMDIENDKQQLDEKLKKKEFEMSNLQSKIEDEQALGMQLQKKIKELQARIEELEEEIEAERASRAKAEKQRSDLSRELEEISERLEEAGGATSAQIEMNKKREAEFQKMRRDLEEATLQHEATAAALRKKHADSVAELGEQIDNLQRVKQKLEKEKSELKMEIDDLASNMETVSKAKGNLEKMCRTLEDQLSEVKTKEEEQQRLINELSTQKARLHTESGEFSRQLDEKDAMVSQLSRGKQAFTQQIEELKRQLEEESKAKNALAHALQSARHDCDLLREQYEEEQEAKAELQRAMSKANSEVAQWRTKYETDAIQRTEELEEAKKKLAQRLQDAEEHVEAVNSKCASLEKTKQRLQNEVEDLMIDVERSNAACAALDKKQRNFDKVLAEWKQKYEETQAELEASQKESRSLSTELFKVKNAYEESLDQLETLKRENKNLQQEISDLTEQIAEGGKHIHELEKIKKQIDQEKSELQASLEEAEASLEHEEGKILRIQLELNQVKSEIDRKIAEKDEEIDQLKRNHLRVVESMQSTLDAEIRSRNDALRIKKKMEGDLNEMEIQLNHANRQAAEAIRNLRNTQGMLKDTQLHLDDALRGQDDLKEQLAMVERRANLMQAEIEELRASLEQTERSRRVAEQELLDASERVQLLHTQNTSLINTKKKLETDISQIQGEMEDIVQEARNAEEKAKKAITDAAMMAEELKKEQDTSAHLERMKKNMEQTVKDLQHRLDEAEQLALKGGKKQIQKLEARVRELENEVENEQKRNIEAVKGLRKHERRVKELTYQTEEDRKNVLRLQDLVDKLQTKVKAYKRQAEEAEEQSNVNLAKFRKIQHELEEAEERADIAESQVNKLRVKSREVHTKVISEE

| Substance | localization of intravenously injected scFv fragments in tissues of FVB mice (histology with anti-his6 antibody) |
| --- | --- |
| mAb 3E10 scFv containing 3E10 VH and VkIII (Vk placed N-terminal of VH) | 20% |

What follows are substances tested against HP8/HEVIN, extracellular matrix protein (UniProt Q14515) (assay: binding of COS-7 expressed antibody to HP8; method and unit not given).
Chain of UniProt Q14515 (Q14515 17-664 limits assumed): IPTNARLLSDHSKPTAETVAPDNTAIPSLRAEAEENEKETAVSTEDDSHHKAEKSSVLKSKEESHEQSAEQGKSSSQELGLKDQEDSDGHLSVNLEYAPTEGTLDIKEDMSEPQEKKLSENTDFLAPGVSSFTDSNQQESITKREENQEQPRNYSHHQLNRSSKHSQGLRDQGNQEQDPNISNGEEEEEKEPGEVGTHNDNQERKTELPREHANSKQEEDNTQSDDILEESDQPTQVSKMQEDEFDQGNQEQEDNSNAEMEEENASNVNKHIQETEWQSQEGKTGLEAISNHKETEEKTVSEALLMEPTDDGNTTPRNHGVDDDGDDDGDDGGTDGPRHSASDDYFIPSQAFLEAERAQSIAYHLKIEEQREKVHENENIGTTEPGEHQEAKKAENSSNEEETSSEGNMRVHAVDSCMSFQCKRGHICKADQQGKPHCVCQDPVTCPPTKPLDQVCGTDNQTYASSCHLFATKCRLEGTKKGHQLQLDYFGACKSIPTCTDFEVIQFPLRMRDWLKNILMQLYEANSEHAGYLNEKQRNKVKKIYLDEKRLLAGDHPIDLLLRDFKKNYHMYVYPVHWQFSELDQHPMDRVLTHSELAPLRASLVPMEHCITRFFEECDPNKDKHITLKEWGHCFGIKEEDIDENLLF

| Substance | Antibody Specificity, HP8 |
| --- | --- |
| mAb 3E10 VH31 mutant heavy chain with Vk residue 27C mutant light chain (S to D, L CDR1) (antibody) | 0.26 |
| mAb 3E10 VH31 mutant heavy chain with Vk residue 92 mutant light chain (R to N, L CDR3) (antibody) | 1.21 |
| mAb 3E10 VH31 mutant heavy chain with Vk residue 32 mutant light chain (Y to F, L CDR1) (antibody) | 2.76 |
| mAb 3E10 VH31 mutant heavy chain with Vk residue 94 mutant light chain (F to D, L CDR3) (antibody) | 0.2 |
| mAb 3E10 VH31 mutant heavy chain (D to N at residue 31, H CDR1) with native light chain (antibody) | 1.3 |
| recombinant mAb 3E10, native heavy chain with native (anti-dsDNA kIII) light chain, expressed in COS-7 cells (antibody) | 2.02 |

From patent publication USRE46211
